The text below walks through data of the nanobody polyreactivity screen of Harvey et al. (2022).

A short description of this series: yeast display, Sf9 membrane polyspecificity reagent, FACS + sequencing; frameworks hold sequencing errors. The procedure, abridged:
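A nanobody's polyreactivity label depends on the gate it was sorted from. Yeast display cells were stained with 10% biotinylated, detergent-solubilized Sf9 membrane reagent for 1 hour at 4 °C, enriched on streptavidin microbeads and sorted by FACS. The low and high (top ~1%) gates were set on anti-HA fluorescence for expression and streptavidin fluorescence for reagent binding.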
As to “QVQLVESGGGLVQAGGSLRLSCSASGSTLAKYAMGWYRQAPGKERELVAAISWSGGRTYYADSVKGRFTISRDNAKNTVYLPMNSLKPEDTAVYYGAARALSSRTYHDDYWGQGTQVTVSS”, the “polyreactivity (PSR sort gate)” value is on record as “high polyreactivity”.

Take “QVQLVESGGGLVQAGGSLRISCAASGFTFVAYAMGWYRKAPGKERELVAAISRRGGTTYYADSVKGRFTISRDNAKNTVYLQMNSLKPEDTAVYYCNARGFPGKFGYWGQGTQVTVSS”: the “polyreactivity (PSR sort gate)” value is listed as “high polyreactivity”.

Regarding “QVQLVESGGGLVQAGGSLRLSCAASGSTFVHYAMGWYRQAPGKERELVADITTGDITNYADSVKGRFTISRDNAKNTVYLQMNSLKPEDTAVYYCAVDHQNSPFHVGRDEYWGQGTQVTVSS”, the “polyreactivity (PSR sort gate)” value is “low polyreactivity”.

For “QVQHVESGGGIVQAGGSLRLICAASGFPYARYAMGWNRQAPGNERELVAAITSAGSTSYADSVKGRFTISRYNAKNTDYFHMNSLKPEDTAVYYCAAVQYNQAYHYWGQGTQVTVSS”, the “polyreactivity (PSR sort gate)” value is given as “high polyreactivity”.

With “QVQLVESGGGLVQAGGSLRFSCAATGSIFVVNAMGWYRQAPGKERELVASITWSGDNTYYADSVKGRFTISRDNAKNTVYLQMNSLKPEDTAVYYCAATIWIAYRGWYSDYNYWGQGTQVTVSS”, the “polyreactivity (PSR sort gate)” value was “low polyreactivity”.

Regarding “QVQLVESGGGLVQAGGRHRLSCAASGRTFWGYGMGWYRQPPGKDRELVATISSGGSTYYEDSVKGRFTISRDNAMNTVYLQMNSLKPEDTAVYYCAARPPRSYWRYQSDYWGLGTQVTVSS”, the “polyreactivity (PSR sort gate)” value is “high polyreactivity”.

For the sequence “QVQLVESGGGLVQAGGTLRLSCDPSGRTFYYYAMGWYRQAPGKERELVATIRSTGSTNYADSVKGRFTISRDNAKNTVYLKMNSLKPEDTAVYYCAAKPLQGVRRVEYWGQGTQVTVSS”, the “polyreactivity (PSR sort gate)” value is on record as “high polyreactivity”.

For the sequence “QVQLVESGGGLVQAGGSLRLSCAASGGIFWVYAMGWYRQAPGKERELVAAISNSDTSTSYADSVKGRFTISRDNAKNTVYLQMNSLKPEDTAVYYCNADSPSLSGDYWGQGTQVTVSS”, the “polyreactivity (PSR sort gate)” value was “low polyreactivity”.

Consider “QVQLVESGGGLVMAGGRLRLSCAASGSTFGYYAMGWYRQAPGKERELVAVITTRVGSTYYADSVKGRFTFSRDNAKNTVYLQMNSLKPEDTAVYYCNASGRTRSYSGSFSKHYYWGQGTQVTVSS”, for which the “polyreactivity (PSR sort gate)” value is recorded as “high polyreactivity”.

On to “QVQLVESGGGLVQAGGSLRLSCAASGSTFDYYTMGWYRQAPGKERELVAAISYSGSRTYYADSVKGRFTISRDNAKNTVYLQMNSLKPEDTAVYYCAAVYRAKYGYWGQGTQVTVSS”, for which the “polyreactivity (PSR sort gate)” value is “high polyreactivity”.

Regarding “QVQLVESGGGLVQAGGSLRLICAASGFTFWDYTMGWYIQAPGKERELVAAITRSGGRTYYADSVKGRFTISRDNENNTFYLQMNSLKTEDTAVYYCAAKIWSKDEKHDYWGQGTQVTVSS”, the “polyreactivity (PSR sort gate)” value is on record as “high polyreactivity”.

For “QVQLVESGGGLVQAGGSLRLSCAASGRIFPYYAMGWYRQAPGKERELVAAISRSGGRTYYADSVKGRFTISRDNAKNTVYLQMNSLKPEDTAVYYCATPSKALPPHCRAILDYWGQGTQVTVSS”, the “polyreactivity (PSR sort gate)” value was “high polyreactivity”.

With “QVQLVESGGGLVQAGGSLRLSCAASGRIFDLNTMGWYRQAPGKERELVAAISSGGSTYYADSVNGRFTISRDNAKNTVYIQMNSLKPEDTAVYYCADAKIRGYLIRMYWGQRTQVTVSS”, the “polyreactivity (PSR sort gate)” value is given as “low polyreactivity”.

For the sequence “QVQLVESGGGLVQAGGSLRLSCAASGFTFYSYAMGWYRQAPGKERELVAAISRSGGRTYYADSVKGRFTISRDNAKNTVYLQMNSLKPEDTAVYYCAAEAYGPYSYSYSPYGYYYWGQGTQVTVSS”, the “polyreactivity (PSR sort gate)” value is recorded as “high polyreactivity”.

Consider “QVQLVESGGRLVQAGASLRLSCAASGFTFGGYAMGWYRQPHGKQRELVAAIDSSGGRTYNADSVKGRFTISRDNAKNTVYLQMNSLKPEDTAVYYCNAVYGSDGYDYWGQGTQVTVSS”, for which the “polyreactivity (PSR sort gate)” value is “high polyreactivity”.

As for “QVQLVDSGGGLVQAGGSLRLSCSASGYNFIGYAMGWYRQAPGKERELVATITSGGSTNYADSVKGRFTISRDNAKNTVYLQMNSLNPEDTAVYYCAAGRGRYFYSWRYLYAIFDYWGQGTQVTVSS”, the “polyreactivity (PSR sort gate)” value is reported as “low polyreactivity”.

Regarding “QVQLVESGGGLVQAGGSLRLSCAASGLTFNFNAMGWYRQAPGKERELVAAISYRAGSTYYADSVKGRFTISRDNAKNSVYLQMNSLKPEDTAVYYCAADGYYYLKSGTYVSDYWGQGTQVTVSS”, the “polyreactivity (PSR sort gate)” value is recorded as “low polyreactivity”.

On to “QVQLVESGGGLVQAGGSLRLSCAASGSIIKPYDMGWYRQAPGKERELVAAIRSSGGRTNYADSVKGRFTISRDNAKNTVYLQMNSLKPEDTAVYYCAAGYVSYWYYRYDYWGQGTQVTVSS”, for which the “polyreactivity (PSR sort gate)” value is on record as “high polyreactivity”.

Take “QVQLVESGGGLVQAGGSLRLSCAASGRTLVLNMGWYRQAPGKERELVATINSGGSTYYADSVKGRFTISRDNAKNTVYLQMNSLKPEDTAVYYCAVLSSDGKFDYWGQGTQVTVSS”: the “polyreactivity (PSR sort gate)” value is “low polyreactivity”.

As to “QVQLVESGGGLVQAGGSLSFSCAAPGSIFPRYAMGWYRQAPGKERELVAAISRSGGSTYYADSVKGRFTISRDNAKNSVYLQMNSLKPEDTAVYYCATDKVSHRRYDYWGQGTQVTVSS”, the “polyreactivity (PSR sort gate)” value is given as “high polyreactivity”.

Take “QVQLVESGGGLVQAGGSLRLSCAASGSTFRRYAMGWYRQAPGKEREFVAAITWSGGNTYADSVKGRFTISRDNAKNTVYLQMNSLKPEDTAVYYCAVQLVYDHYRYDYWGQGTQVTVSS”: the “polyreactivity (PSR sort gate)” value was “high polyreactivity”.

As to “QVQLVESGGGLDQARGSLRLSCAASGSITTFYAMGWSRQAHGKERELVAAISSSGGSTYYADSVKGRFTISRDNAKNTVYLQMNSLKPEDTAVYSCAAKGYPSRYSYGWYNYWGQGTQVTLSS”, the “polyreactivity (PSR sort gate)” value was “high polyreactivity”.

As to “QVQLVESGGGLVQAGGRLRLSCAASGSTFIDYAMGWYRPAPGKERELVAAITNGGNTKYADSVKGRFTISRDNAKNTVYLQMKSLKPEDTSVDYCSREPSIFTSSYDYWGQGTQVTVSS”, the “polyreactivity (PSR sort gate)” value is given as “low polyreactivity”.

For “QVQLVESGGGLVQAGGSLRLSCAASGRIFYPYAMGWYRQAPGTERELVAAISYSGGSTFYADSVKGRFTISRDNAKNTVYFQMNSLKPEDTAVYFCNKVWFARYWYRDFDYWGQGTQVTVSS”, the “polyreactivity (PSR sort gate)” value is recorded as “high polyreactivity”.

Take “QVQLVESGGGLVQAGGSLRLSCAASGSIFDSNTRGWYRQAPGKERELVAAINWSGGRTYYADSVKGRFTISRDNPNNTVYLQMNSLKPEDTAVYYCARPSYYATYYPQPFGYNYWGQGTQVTVSS”: the “polyreactivity (PSR sort gate)” value is given as “high polyreactivity”.

With “QVQLVESGGGLVQAGGSLRLSCAASGNIFTIYAMGWYRQAPGKERELVAAIDSDGTTYYADSVKGRFTISRYNAKNTVYLQMNSLKPEDTAVYYCAAGGRSVRYNYWGQGTQVTVSS”, the “polyreactivity (PSR sort gate)” value is recorded as “high polyreactivity”.

For “QVQLVESGGGLVQAGGSLRLSCAASGLILVPNTMGWYRQAPGKERELVAAISYSGGGTYYADSVKGRFTISRDNAKNTVYLQMNSLKPEDTAVYYCAADFYQSHFYRPRYDYWGQGTQVTVSS”, the “polyreactivity (PSR sort gate)” value is given as “low polyreactivity”.

For “QVQLVESGGGLVQAGGSLRLSCAASGRIFLYNAMGWYRQAPGKERELVAAITSSGSSTYYADSVKGRFTISRDNAKNTVYLQMNSLKPEDTAVYYCNRYTRKTRRVDYWGQGTQVTVSS”, the “polyreactivity (PSR sort gate)” value is given as “high polyreactivity”.

Turning to “QVQLVESGGGIVQAGGSLRLICAASGFTFGEYAMGRYRQAPGKERELVAAISRGTSTYYADSVKGRFTISRDNAKTTVYLQMNSLKPEDTAVYYCAADWGGLWFWYEYWGQGTQVTVSS”, the “polyreactivity (PSR sort gate)” value is given as “low polyreactivity”.

“QVQLVESGGGLVQAGGSLRLSSAASGSIFRYNAMGWYRPAPGKERELVAAITSSGGSTYYADSVKGRFTISRDNAKNTVYLQMNSLKPEDTAVYYCAAVRRRVHYPYDYWGQGTQVTVSS”: the “polyreactivity (PSR sort gate)” value is on record as “high polyreactivity”.

As to “QVQLVESGGGLVQAGGSLRLSCASSGSIFPRYAMGSYRPAPGKERELVAAISQSGGRTYYADSVKGRFTISRDNAKNTVYLQMNSMKPEDTAVYYCAALVSGEYDYWGQGTQVTVSS”, the “polyreactivity (PSR sort gate)” value was “high polyreactivity”.

For the sequence “QVQLVESGGGLVQAGGSLRLSCAASGNIFYSYAMGWYRQAPGKERELVAAISSSGGRTYYADSVKGRFTISRDNAKNTVYLQMNSLKPEDTAVYYCNAYVQVLRYVFGRPTVYPYDYWGQGTQVTVSS”, the “polyreactivity (PSR sort gate)” value is “high polyreactivity”.

Take “QVQLVESGGGLVQAGGSLRLSCAASGFTFYSYAMGWYRQAPGKERELVAAISWSGTRTYYADSVKGRFTISRDNAKNTVYLQMNSLKPVDTAVYDCAADTRRWARGYDYWGQGTQVTVSS”: the “polyreactivity (PSR sort gate)” value is listed as “high polyreactivity”.

For the sequence “QVQLVESGGGLVQAGGSLRLSCAASGSIFEYYTMGWYIPAPGKERECVAAITFTGDSTYYADSVKGRFTISRDNAKNTVFLQMNSLKPEDTAVYYCNADSVTYDGEYDYWGQGTQVTVSS”, the “polyreactivity (PSR sort gate)” value is given as “low polyreactivity”.

On to “QVQLVESGGGLVQAGGSLRLSCAASGLTFKINAMGWYRQAPGKERELVAAIRSSGGRTYADSVKGRFTISRDNAKNTVYLQMNSLKPEDTAVYYCNKSPGYRSGRAVLYDYWGQGTQVTVSS”, for which the “polyreactivity (PSR sort gate)” value was “low polyreactivity”.

In the case of “QVQLVESGGGLVQAGGSLRLSCAASGITIKRYDMGWYRQAPGKEREFVATISQSGTSTYYADSVKGRFTISRDNAKNTVYLQMNSLKPEDTAVYYCAAYYIGYWYGYYSWGQGTQVTVSS”, the “polyreactivity (PSR sort gate)” value is listed as “low polyreactivity”.

On to “QVQLVESGGGLVQAGGSLRLSCAASGRIFYYNAMGWYRQAPGKERELVAAITSGGSTNYADSVKGRFTISPDNAKNTVYLQMNSLKPEDTAVYYCNARRYGSPRSEVHYDYCGQGTQVTVSS”, for which the “polyreactivity (PSR sort gate)” value is listed as “low polyreactivity”.

On to “QVQLVESGGGLVQAGGSLRLSCAASGFIFTQYAMGWYRQAPGKERELVAGITSSGNTYYADSVKGRFTISRDNAKNPVYLQMNSLKPEDTAVYYCAARSASRRMDYWGQGTQVTVSS”, for which the “polyreactivity (PSR sort gate)” value is given as “high polyreactivity”.

In the case of “QVQLVESGGGLVQAGGSLRLSCAASGSIYWINTSMGWYIQAPGKERELVAAITWSSGGTYYADSVKGRFTISRDNAKKTVYLQMNSLKPEDTAVYYCAKVRFFWYRMGYWGQGTQVTVSS”, the “polyreactivity (PSR sort gate)” value is on record as “high polyreactivity”.

In the case of “QVQLVESGGGLVQAGGSLRLSCAASGIIFSYNAMGWYRQAPGKERELVAAITRTGSTNYADSVKGRFTISRDNAKNTVYLQMNSLKPEDTAVYYCAAGWGYGRYRHVGYRMDYWGQGTQVTVSS”, the “polyreactivity (PSR sort gate)” value is given as “high polyreactivity”.

Turning to “HVQLVESGGGLVQAGGSLRLSCPASGRIFYRNPMGWYRQAPGKERELVAGISKRGGSTYYADSVKGRFTISRDNAKNTVYLQMNSLKPEDTAVYYCATVPYSPPSAGPEYDYWGQGTQVTVSS”, the “polyreactivity (PSR sort gate)” value is “high polyreactivity”.
